Reference: the array DNA melting data of Ke et al.

experiment: melting temperature; melt of duplexes; conditions: sodium 0.0675 M; strand 1 µM

**Q.** With “CGACGTGCAGTATGTGCTG+CAGCACATTGAGCACGTCG ((((((((...((((((((+))))))))...))))))))” as the substance, how does the Tm read?
**A.** 49.1 °C

**Q.** With “CGACGTGCCGGATGTGCTG+CAGCACATTCTGCACGTCG ((((((((.(.((((((((+)))))))).).))))))))” as the substance, how does the Tm read?
**A.** 52.3 °C

**Q.** For “CGACGTGCTTAATGTGCTG+CAGCACATCCGGCACGTCG ((((((((...((((((((+))))))))...))))))))”, which Tm is on record?
**A.** 49 °C

**Q.** For “CGACGTGCACCATGTGCTG+CAGCACATGGGGCACGTCG ((((((((.((((((((((+)))))))))).))))))))”, which Tm is on record?
**A.** 62.8 °C

**Q.** With “CGACGTGCCCGATGTGCTG+CAGCACATTTCGCACGTCG ((((((((...((((((((+))))))))...))))))))” as the substance, how does the Tm read?
**A.** 47.6 °C

**Q.** With “CGACGTGCGGAATGTGCTG+CAGCACATGCAGCACGTCG ((((((((.(.((((((((+)))))))).).))))))))” as the substance, how does the Tm read?
**A.** 59.9 °C

**Q.** For “CGACGTGCGGGATGTGCTG+CAGCACATAGCGCACGTCG (((((((((..((((((((+))))))))..)))))))))”, which Tm is on record?
**A.** 57.4 °C

**Q.** For “CGACGTGCTCCATGTGCTG+CAGCACATCAGGCACGTCG ((((((((...((((((((+))))))))...))))))))”, which Tm is on record?
**A.** 48.6 °C

**Q.** Which Tm does the source give for “CGACGTGCCTTATGTGCTG+CAGCACATCCCGCACGTCG ((((((((...((((((((+))))))))...))))))))” here?
**A.** 46.8 °C

**Q.** Which Tm does the source give for “CGACGTGCGCTATGTGCTG+CAGCACATGCTGCACGTCG ((((((((...((((((((+))))))))...))))))))” here?
**A.** 51.5 °C

**Q.** For “CGACGTGCGACATGTGCTG+CAGCACATAGTGCACGTCG ((((((((...((((((((+))))))))...))))))))”, which Tm is on record?
**A.** 48.8 °C

**Q.** For “CGACGTGCTTAATGTGCTG+CAGCACATATGGCACGTCG ((((((((...((((((((+))))))))...))))))))”, which Tm is on record?
**A.** 51.4 °C

**Q.** For “CGACGTGCATAATGTGCTG+CAGCACATAGAGCACGTCG ((((((((...((((((((+))))))))...))))))))”, which Tm is on record?
**A.** 48.7 °C

**Q.** With “CGACGTGCTGAATGTGCTG+CAGCACATCCCGCACGTCG ((((((((.(.((((((((+)))))))).).))))))))” as the substance, how does the Tm read?
**A.** 51 °C

**Q.** With “CGACGTGCAGAATGTGCTG+CAGCACATTGCGCACGTCG ((((((((..(((((((((+)))))))))..))))))))” as the substance, how does the Tm read?
**A.** 52.1 °C

**Q.** Which Tm does the source give for “CGACGTGCACGATGTGCTG+CAGCACATGGGGCACGTCG ((((((((.(.((((((((+)))))))).).))))))))” here?
**A.** 54.9 °C

**Q.** With “CGACGTGCGAAATGTGCTG+CAGCACATCAGGCACGTCG ((((((((...((((((((+))))))))...))))))))” as the substance, how does the Tm read?
**A.** 49.7 °C

**Q.** With “CGACGTGCATGATGTGCTG+CAGCACATGTTGCACGTCG (((((((((..((((((((+))))))))..)))))))))” as the substance, how does the Tm read?
**A.** 52.2 °C

**Q.** For “CGACGTGCGTGATGTGCTG+CAGCACATGACGCACGTCG ((((((((((.((((((((+)))))))).))))))))))”, which Tm is on record?
**A.** 57.8 °C

**Q.** For “CGACGTGCGTGATGTGCTG+CAGCACATCGCGCACGTCG (((((((((.(((((((((+))))))))).)))))))))”, which Tm is on record?
**A.** 63.6 °C

**Q.** For “CGACGTGCATGATGTGCTG+CAGCACATTCAGCACGTCG ((((((((...((((((((+))))))))...))))))))”, which Tm is on record?
**A.** 51.1 °C

**Q.** With “CGACGTGCCCAATGTGCTG+CAGCACATCAAGCACGTCG ((((((((...((((((((+))))))))...))))))))” as the substance, how does the Tm read?
**A.** 48.9 °C

**Q.** With “CGACGTGCCACATGTGCTG+CAGCACATACTGCACGTCG ((((((((...((((((((+))))))))...))))))))” as the substance, how does the Tm read?
**A.** 47.2 °C

**Q.** For “CGACGTGCTATATGTGCTG+CAGCACATGCGGCACGTCG ((((((((...((((((((+))))))))...))))))))”, which Tm is on record?
**A.** 49.4 °C

**Q.** With “CGACGTGCCCTATGTGCTG+CAGCACATCCAGCACGTCG ((((((((...((((((((+))))))))...))))))))” as the substance, how does the Tm read?
**A.** 47.7 °C

**Q.** For “CGACGTGCTCTATGTGCTG+CAGCACATTACGCACGTCG ((((((((...((((((((+))))))))...))))))))”, which Tm is on record?
**A.** 47.8 °C

**Q.** For “CGACGTGCCGGATGTGCTG+CAGCACATCAGGCACGTCG (((((((((.(((((((((+))))))))).)))))))))”, which Tm is on record?
**A.** 62.6 °C

**Q.** With “CGACGTGCTTGATGTGCTG+CAGCACATATGGCACGTCG ((((((((...((((((((+))))))))...))))))))” as the substance, how does the Tm read?
**A.** 51 °C

**Q.** With “CGACGTGCACCATGTGCTG+CAGCACATCATGCACGTCG (((((((((..((((((((+))))))))..)))))))))” as the substance, how does the Tm read?
**A.** 45.6 °C

**Q.** Which Tm does the source give for “CGACGTGCGCCATGTGCTG+CAGCACATCGGGCACGTCG ((((((((.(.((((((((+)))))))).).))))))))” here?
**A.** 51.2 °C

**Q.** With “CGACGTGCTAAATGTGCTG+CAGCACATCCCGCACGTCG ((((((((...((((((((+))))))))...))))))))” as the substance, how does the Tm read?
**A.** 48.9 °C

**Q.** With “CGACGTGCAGGATGTGCTG+CAGCACATAGAGCACGTCG ((((((((...((((((((+))))))))...))))))))” as the substance, how does the Tm read?
**A.** 49.4 °C

**Q.** For “CGACGTGCCGGATGTGCTG+CAGCACATCTCGCACGTCG ((((((((..(((((((((+)))))))))..))))))))”, which Tm is on record?
**A.** 54.1 °C

**Q.** For “CGACGTGCAATATGTGCTG+CAGCACATTGTGCACGTCG (((((((((..((((((((+))))))))..)))))))))”, which Tm is on record?
**A.** 49.1 °C

**Q.** For “CGACGTGCACCATGTGCTG+CAGCACATGGCGCACGTCG ((((((((.((((((((((+)))))))))).))))))))”, which Tm is on record?
**A.** 59.2 °C

**Q.** With “CGACGTGCATAATGTGCTG+CAGCACATACGGCACGTCG ((((((((...((((((((+))))))))...))))))))” as the substance, how does the Tm read?
**A.** 47.3 °C

**Q.** With “CGACGTGCGGAATGTGCTG+CAGCACATTACGCACGTCG (((((((((.(((((((((+))))))))).)))))))))” as the substance, how does the Tm read?
**A.** 62 °C

**Q.** For “CGACGTGCGGGATGTGCTG+CAGCACATCGCGCACGTCG (((((((((.(((((((((+))))))))).)))))))))”, which Tm is on record?
**A.** 63.7 °C

**Q.** Which Tm does the source give for “CGACGTGCTCCATGTGCTG+CAGCACATAAAGCACGTCG (((((((((..((((((((+))))))))..)))))))))” here?
**A.** 50.9 °C

**Q.** Which Tm does the source give for “CGACGTGCGACATGTGCTG+CAGCACATCAAGCACGTCG ((((((((...((((((((+))))))))...))))))))” here?
**A.** 52.6 °C

**Q.** Which Tm does the source give for “CGACGTGCTTAATGTGCTG+CAGCACATAGAGCACGTCG (((((((((..((((((((+))))))))..)))))))))” here?
**A.** 53.1 °C

**Q.** Which Tm does the source give for “CGACGTGCTTGATGTGCTG+CAGCACATGGGGCACGTCG ((((((((...((((((((+))))))))...))))))))” here?
**A.** 50.7 °C

**Q.** With “CGACGTGCTTAATGTGCTG+CAGCACATGAAGCACGTCG ((((((((((.((((((((+)))))))).))))))))))” as the substance, how does the Tm read?
**A.** 57.4 °C

**Q.** With “CGACGTGCCCTATGTGCTG+CAGCACATCTTGCACGTCG ((((((((...((((((((+))))))))...))))))))” as the substance, how does the Tm read?
**A.** 47.3 °C

**Q.** For “CGACGTGCTAAATGTGCTG+CAGCACATAACGCACGTCG ((((((((...((((((((+))))))))...))))))))”, which Tm is on record?
**A.** 50 °C

**Q.** For “CGACGTGCCGAATGTGCTG+CAGCACATAGTGCACGTCG ((((((((...((((((((+))))))))...))))))))”, which Tm is on record?
**A.** 45.9 °C

**Q.** With “CGACGTGCCAGATGTGCTG+CAGCACATCCGGCACGTCG (((((((((.(((((((((+))))))))).)))))))))” as the substance, how does the Tm read?
**A.** 59.2 °C

**Q.** For “CGACGTGCTTCATGTGCTG+CAGCACATTGCGCACGTCG ((((((((...((((((((+))))))))...))))))))”, which Tm is on record?
**A.** 46.5 °C

**Q.** With “CGACGTGCTGGATGTGCTG+CAGCACATCTGGCACGTCG ((((((((..(((((((((+)))))))))..))))))))” as the substance, how does the Tm read?
**A.** 58.3 °C

**Q.** With “CGACGTGCTGTATGTGCTG+CAGCACATATGGCACGTCG ((((((((..(((((((((+)))))))))..))))))))” as the substance, how does the Tm read?
**A.** 54.4 °C

**Q.** Which Tm does the source give for “CGACGTGCTTTATGTGCTG+CAGCACATTGCGCACGTCG ((((((((...((((((((+))))))))...))))))))” here?
**A.** 46.4 °C

**Q.** Which Tm does the source give for “CGACGTGCTATATGTGCTG+CAGCACATTCAGCACGTCG (((((((((..((((((((+))))))))..)))))))))” here?
**A.** 51 °C
